Assay results reported in article PMC5231390, “Two-Component Signaling System VgrRS Directly Senses Extracytoplasmic and Intracellular Iron to Control Bacterial Adaptation under Iron Depleted Stress” (PLoS Pathogens, 2016).

Experiments:
[1] = biological target: VgrR (Xanthomonas campestris pv. campestris); test: MST
[2] = biological target: phosphorylated VgrR (phosphorylated by acetyl phosphate) (Xanthomonas campestris pv. campestris); test: MST
[3] = biological target: T1, VgrS (full-length, inverted membrane vesicles) (Xanthomonas campestris, UniProt Q8P666); details: 100 μM ATP with 10 μCi [γ-32P]ATP, 5 mM MgCl2, pH 7.8, 28°C, labelled compound
T1 construct: gene colS

VgrR = biological target: T2, VgrR (Xanthomonas campestris, UniProt Q7CLQ6); test: phosphorylation of VgrR seen as raised VgrS affinity in MST; assay type: biochemical; details: phosphodonor; indirect read-out (VgrR-VgrS binding)
T2 construct: gene colR; full-length, C-terminal His6, pET30a in E. coli BL21(DE3), Ni-NTA purified

[4] = biological target: VgrR (ColR), unphosphorylated (Xanthomonas campestris pv. campestris, UniProt B0RPP4 1-225); test: MST; 10 mM MgCl2; EMSA: 10 mM Tris-HCl pH 7.5, 50 mM KCl, 1 mM DTT, poly(dI-dC), room temp; MST: 50 mM Tris-HCl pH 7.4, 150 mM NaCl, 10 mM MgCl2, 0.05% Tween-20; details: protein: recombinant; tags: C-terminal His6 (pET30a); chain copies: 2; label: 5'-FAM on one strand

VgrS, membrane-embedded, full-length (receptor)
Kd [1]: 4300 nM | Kd [2]: 260 nM

Nc1ncnc2c1ncn2[C@@H]1O[C@H](COP(=O)(O)OP(=O)(O)OP(=O)(O)O)[C@@H](O)[C@H]1O [ATP]
in vitro autophosphorylation, SDS-PAGE autoradiography [3]: VgrS has an autokinase activity by phosphorylating itself in the presence of ATP

CC(=O)OP(=O)(O)O [acetyl phosphate]
phosphorylation of VgrR seen as raised VgrS affinity in MST (VgrR): Phosphorylation of VgrR by acetyl phosphate significantly increased the VgrR-VgrS binding affinity

B1: PtdvA 50 bp, 5'-FAM (MST) (dsDNA)
DNA 1: GCCCGATTTCACGTCTTTCTTCTTTTTCATTAACGGGACTTTAATTCCTG
DNA 2: CAGGAATTAAAGTCCCGTTAATGAAAAAGAAGAAAGACGTGAAATCGGGC
Kd [4]: 189 ± 6.22 nM
